Data: patent US7105290 (PROCTER AND GAMBLE, dated 2006)

T1: mouse BMP receptor kinase protein m-BRK-3 (mouse), O35607
T1 chain: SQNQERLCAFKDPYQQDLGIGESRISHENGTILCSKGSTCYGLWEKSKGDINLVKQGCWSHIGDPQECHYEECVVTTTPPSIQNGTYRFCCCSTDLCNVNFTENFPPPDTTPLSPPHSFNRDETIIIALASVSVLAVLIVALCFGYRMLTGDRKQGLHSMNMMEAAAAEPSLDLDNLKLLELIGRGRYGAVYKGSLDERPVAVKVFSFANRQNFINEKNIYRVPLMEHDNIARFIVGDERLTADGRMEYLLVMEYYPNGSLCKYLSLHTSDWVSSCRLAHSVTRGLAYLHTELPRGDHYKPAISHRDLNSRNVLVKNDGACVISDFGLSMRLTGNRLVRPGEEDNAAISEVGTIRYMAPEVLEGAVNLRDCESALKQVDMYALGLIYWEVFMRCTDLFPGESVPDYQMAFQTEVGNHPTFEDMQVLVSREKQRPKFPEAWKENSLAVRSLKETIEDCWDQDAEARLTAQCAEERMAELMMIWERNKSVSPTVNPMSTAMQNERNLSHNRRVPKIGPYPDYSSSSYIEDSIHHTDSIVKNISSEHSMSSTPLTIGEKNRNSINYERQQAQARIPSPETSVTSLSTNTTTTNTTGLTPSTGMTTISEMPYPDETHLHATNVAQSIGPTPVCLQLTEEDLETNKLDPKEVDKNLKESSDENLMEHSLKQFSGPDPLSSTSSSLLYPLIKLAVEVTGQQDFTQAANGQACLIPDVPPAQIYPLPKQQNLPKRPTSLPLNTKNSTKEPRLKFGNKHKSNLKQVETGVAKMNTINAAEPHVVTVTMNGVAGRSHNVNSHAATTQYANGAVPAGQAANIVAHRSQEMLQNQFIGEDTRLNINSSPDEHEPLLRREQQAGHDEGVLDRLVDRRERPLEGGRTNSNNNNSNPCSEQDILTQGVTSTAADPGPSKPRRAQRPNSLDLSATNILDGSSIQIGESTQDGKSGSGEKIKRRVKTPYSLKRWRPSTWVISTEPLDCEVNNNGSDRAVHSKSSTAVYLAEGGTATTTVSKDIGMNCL

B1: bone morphogenetic protein 4, P12644 293-408 (ligand, UniProt P12644 293-408, looked up)
chain: SPKHHSQRARKKNKNCRRHSLYVDFSDVGWNDWIVAPPGYQAFYCHGDCPFPLADHLNSTNHAIVQTLVNSVNSSIPKACCVPTELSAISMLYLDEYDKVVLKNYQEMVVEGCGCR
modifications: here or on the partner: 125I-labelled when used as tracer ([^125I]-BMP-4; IODOBEADS or chloramine-T method); unlabeled when used as competitor
B2: bone morphogenetic protein 2 (ligand, UniProt P12643 283-396, looked up)
chain: QAKHKQRKRLKSSCKRHPLYVDFSDVGWNDWIVAPPGYHAFYCHGECPFPLADHLNSTNHAIVQTLVNSVNSKIPKACCVPTELSAISMLYLDENEKVVLKNYQDMVVEGCGCR
notes: also called BMP-2

What was measured:
[1] = biological target: T1, mouse BMP receptor kinase protein …; assay: whole cell binding of radiolabeled ligand, COS-1 cells transfected with pJT6-mBRK-3S or pJT6-mBRK-3L; settings: remark: other sources report otherwise; scale: times the level seen with mock transfected cells
[2] = biological target: T2, BRK-2 co-expressed with t-BRK-3 (BRK-2/t-BRK-3 complex) (chicken; human, UniProt Q05438 14-502; Q13873 27-540); assay: competition, 10 nM unlabeled ligand against [^125I]-BMP-4; crosslinking and immunoprecipitation with antiserum 1380
T2 construct: Both receptors co-transfected into COS cells; also called BRK-2 and BRK-3 receptor complex; BRK-2 plus t-BRK-3
T2 sequence (Q05438 14-502 limits assumed, one chain of several): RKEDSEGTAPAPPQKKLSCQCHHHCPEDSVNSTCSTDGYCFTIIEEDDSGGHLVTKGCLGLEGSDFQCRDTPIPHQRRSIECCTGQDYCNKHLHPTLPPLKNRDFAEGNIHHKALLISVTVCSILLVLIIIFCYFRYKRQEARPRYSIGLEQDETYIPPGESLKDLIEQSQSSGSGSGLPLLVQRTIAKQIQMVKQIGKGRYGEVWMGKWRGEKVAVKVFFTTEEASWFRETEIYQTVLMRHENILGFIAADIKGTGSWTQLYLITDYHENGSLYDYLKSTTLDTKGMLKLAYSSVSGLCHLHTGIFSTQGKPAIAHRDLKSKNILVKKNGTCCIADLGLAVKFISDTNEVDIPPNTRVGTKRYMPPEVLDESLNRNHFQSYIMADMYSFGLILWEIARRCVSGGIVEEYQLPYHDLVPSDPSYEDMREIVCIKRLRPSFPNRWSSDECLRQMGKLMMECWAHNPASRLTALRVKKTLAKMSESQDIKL
Experimental: Following the crosslinking, cells are washed three times with ice-cold PBS, then lysed with 1 ml of RIP buffer (20 mM TrisCl, pH 8.0, 100 mM NaCl, 1 mM Na_2EDTA, 0.5% Nonidet P-40, 0.5% sodium deoxycholate, 10 mM sodium iodide, and 1% bovine serum albumin) for 10 min. The lysate is centrifuged in a microcentrifuge at 13,000 rpm for 10 min at 4° C. The supernatant is transferred to a fresh tube and made 0.1% in SDS. To remove any existing antibody present in the lysate, 50 µl of PANSORBIN (Calbiochem, La Jolla, Calif.; a 10% solution of *Staphylococcus aureus*) is added. After a 30 minute incubation at 4° C., the lysate is centrifuged as before, and the supernatant again transferred to a fresh tube.
To precipitate the complex of antigen:primary antibody, 25–50 µl of PANSORBIN is then added and incubated 30 min on ice. The complex is pelleted at 13,000 rpm for 10 min in a microcentrifuge and the supernatant discarded. The pellet is washed twice in RIP buffer containing 0.1% SDS, and once in TNEN buffer (20 mM Tris, pH 8.0, 100 mM NaCl, 1 mM EDTA, 0.5% NP-40). The pellet is resuspended in 25 µl of 1× sample loading buffer. (Alternatively, the pellet may be washed twice with TNEN buffer, with similar results.) The sample is boiled for 5 min, centrifuged for 5 min, and subjected to gel electrophoresis after loading of the samples onto a 7.5% SDS-polyacrylamide gel.

Binder	specific binding of [^125I]-BMP-4 relative to mock transfected cells [1]	binding result [2]
B1	4 to 7	
B2		binds
